Data set [1] is described as follows: Isoelectric point determination (IEF gel). Format: physicochemical. Particulars: stated in production example. As for the experimental part: In this Example, experiments performed to determine the isoelectric point and cloud point of SELP47K (Example 1) are described. The isoelectric point of SELP47K was determined by electrophoresing 5 mg/ml SELP47K solution using Isoelectric Focusing Electrophoresis (IEF) gel and Novex electrophoresis apparatus along with protein standards markers.

The test system of data set [2] is Fibroblasts (HDFn Cell Line).
Procedure: Initial screening was conducted to identify a test range suitable to determine the effect of a broad range of test material concentrations on cell viability. […] Cultured fibroblasts were exposed to the test materials for 48 hours and then changes in cell viability were determined using an MTT assay (i.e., a colorimetric analysis of the metabolic activity of the cultured cells, described in greater detail below).
The purple crystals are extracted from the cells with isopropanol and the amount of crystal formation quantified spectrophotometrically. […] A decrease in color intensity can be a sign of toxicity.
Fibroblasts (Cascade Biologics, HDFn Cell Line, lot#1C0914) were seeded into the individual wells of either a 96-well plate (for the initial pilot work to determine concentration effects on cell viability) in 100 μl of Fibroblast Growth Media (FGM) or in 12-well plates (for the measurement of collagen, elastin and MMP-1) in 1.0 ml of FGM and incubated overnight at 37±2° C. and 5±1% CO2. On the following day, the medium was removed via aspiration to eliminate any non-adherent cells and replaced with fresh FGM. The cells were grown until confluent, with a media change every 48 to 72 hours. Upon reaching confluency, the cells were treated for 24 hours with Dulbecco's Modified Essential Media (DMEM) supplemented with 1.5% FBS to wash out any effects from the growth factors included in the normal FGM. After this 24-hour wash out period, the cells were treated with the test materials at the specified concentrations dissolved in DMEM with 1.5% FBS. Untreated cells (negative controls) received DMEM with 1.5% FBS. The cells were incubated for 48 hours and at the end of the incubation period cell culture medium was either discarded (pilot work) or collected and stored frozen at −75° C. The test materials were tested in triplicate.
After the 2-day incubation, the cell culture medium was removed and the fibroblasts were washed twice with PBS to remove any remaining test material. After the final wash, either 100 μl (96-well plates) or 300 μl (12-well plates) of DMEM supplemented with 0.5 mg/ml MTT were added to each well and the cells were incubated for 1 hour at 37±2° C. and 5±1% CO2. After the incubation, the DMEM/MTT solution was removed and the cells were washed again once with PBS and then either 100 μl (96-well plates) or 1 ml (12-well plates) of isopropyl alcohol were added to each well to extract the purple formazin crystals. For the 12-well plates, two hundred microliters of the isopropyl extracts was transferred to a 96-well plate. The 96-well plates were read at 540 nm using isopropyl alcohol as a blank. The mean MTT absorbance value for the negative control cells was calculated and used to represent 100% value for cell viability. The individual MTT values from the cells undergoing the various treatments were then divided by the mean value for the negative control cells and expressed as a percent, to determine the change in cell viability caused by each treatment.
Data set [3] has as its system cultured dermal fibroblasts. The data set is described as follows: UVB protection, follow-up MTT assay (pretreatment protocols). As to conditions: UVB control 79 ± 19. It counts as cell-based, human. As for the experimental part: (§1) Two sets of duplicate cells were prepared using the four treatment protocols outlined in Table 24. One set of cells was used for an MTT assay while the other set of cells was used to measure the formation of ROS using the fluorescent DCF dye indicator.
(§2) For this follow up study, the material was tested at concentrations of 0.14% and 0.014%. During the pretreatment phase, the test material was diluted in FGM (for treatments 1 and 2). […] For the MTT assay, cells that were not exposed to UVB or treated with test materials were used to represent 100% cell viability.
A general note: Tetrazolium assays rely on reduction of a dye to a coloured formazan, in cell work by metabolically active cells.

Data set [4] concerns reactive oxygen species (ROS). Description: Fluorescent DCF dye assay after UVB. It counts as cell-based, human. Particulars: No UVB 0.031, UVB 0.057. As for the experimental part: Therefore, the aim of the follow-up study, was to determine if treatment with the test material before or during UVB exposure provided any additional survival benefit(s). Four different treatment regiments were employed using different combinations of pretreatment with the test material prior to UVB exposure and treatment with the material during UVB exposure. Cell survival was again assessed via an MTT assay 48 hours after the UVB insult. In addition, this second study also incorporated the use of 2′,7′-dichloro-dihydrofluorescein diacetate (DCF), which is a relatively non-fluorescent dye that can be loaded into cells and becomes fluorescent upon exposure to the reactive oxygen species (ROS) generated during UVB exposure (Carini et al., Il Farmaco 55:526-534 [2000]; and Chan et al., J. Cell. Biochem., 90:327-338 [2003]). The diacetate form of the dye can freely traverse cell membranes, however once inside of the cell intracellular esterases will cleave off the acetate side groups trapping the DCF dye within the cell.
as §1, §2
One hour prior to UVB exposure, the cell culture media were removed and the wells were washed with PBS to remove any residual RSPP test material in the set of cells used for the DCF assay. A 20 mM stock of DCF prepared in DMSO was diluted to 10 μM using PBS and 100 μl of this solution were added to each well. The plate was then returned to the incubator for 1 hour, to allow sufficient time for the cells to take up and trap the dye. After the 1-hour incubation, the cells were washed with PBS to remove any unincorporated dye and then exposed to UVB using the protocol described above. Forty-eight hours later, the 96-well plate was read using a fluorometer set for an excitation wavelength of 485 nm and an emission wavelength of 518 nm. The duplicate set of wells run for the MTT assay served as non-dye loaded blanks to account for any background fluorescence due to the cells or the test material.
The mean fluorescence intensity was determined for each of the treatment groups (measured in relative fluorescence units or “RFU”).

Data set [5] relates to Fibroblasts (HDFn Cell Line). Description: MTT assay (second cell viability assay). Particulars: 48 hours.
Source text: The purple crystals are extracted from the cells with isopropanol and the amount of crystal formation quantified spectrophotometrically. The intensity of the purple color is directly proportional to the metabolic activity of the cultured cells, which normally is used as an indication of an increase in the number of viable cells, although it can also indicate an increase in the mitochondrial content of the existing cells (Alley et al., Cancer Res., 48:589-601 1988). A decrease in color intensity can be a sign of toxicity.
Fibroblasts (Cascade Biologics, HDFn Cell Line, lot#1C0914) were seeded into the individual wells of either a 96-well plate (for the initial pilot work to determine concentration effects on cell viability) in 100 μl of Fibroblast Growth Media (FGM) or in 12-well plates (for the measurement of collagen, elastin and MMP-1) in 1.0 ml of FGM and incubated overnight at 37±2° C. and 5±1% CO2. On the following day, the medium was removed via aspiration to eliminate any non-adherent cells and replaced with fresh FGM. The cells were grown until confluent, with a media change every 48 to 72 hours. Upon reaching confluency, the cells were treated for 24 hours with Dulbecco's Modified Essential Media (DMEM) supplemented with 1.5% FBS to wash out any effects from the growth factors included in the normal FGM. After this 24-hour wash out period, the cells were treated with the test materials at the specified concentrations dissolved in DMEM with 1.5% FBS. […]
After the 2-day incubation, the cell culture medium was removed and the fibroblasts were washed twice with PBS to remove any remaining test material. […] The 96-well plates were read at 540 nm using isopropyl alcohol as a blank. The mean MTT absorbance value for the negative control cells was calculated and used to represent 100% value for cell viability. The individual MTT values from the cells undergoing the various treatments were then divided by the mean value for the negative control cells and expressed as a percent, to determine the change in cell viability caused by each treatment.
In data set [6] the test system is cultured dermal fibroblasts. The data set is described as follows: UVB protection, initial MTT assay (material applied after UVB). As to conditions: 0.14%, −UVB condition.
Procedure: In these experiments, the test material was tested at six concentrations with two duplicate sets of cells prepared. […] Changes in cell viability were then determined 48 hours post material application via an MTT assay, as described above.
Fibroblasts were seeded into the individual wells of a 96 well plate in 100 μl FGM, and incubated overnight at 37±2° C. and 5±1% CO2. On the following day, the media were removed via aspiration to eliminate any non-adherent cells and replaced with 100 μl of fresh FGM. The cells were grown until confluent, with a media change every 48 to 72 hours.
An UVLM-26 lamp was used as the source of UVB light. UV light intensity was measured using a UVX radiometer coupled to a UVB sensor probe (UV Products) to determine the time required to deliver an approximate dose of 50 mj/cm^2. Prior to UVB exposure, the FGM was replaced with 100 μl PBS. After exposure, the PBS was removed and replaced with FGM supplemented with either the test materials, 20 μM Trolox, or left unsupplemented. A duplicate set of cells was also prepared and treated as described above, with the exception that they were not exposed to UVB light. […] The cells were allowed to incubate with the test materials for 48 hours, and then changes in cell viability were determined via an MTT assay. […]
After the 48-hour incubation, the cell culture medium was removed and the fibroblasts were washed with PBS to remove any remaining test material. […] The 96-well plate was then read at 540 nm using isopropyl alcohol as a blank.
The mean MTT absorbance value for the negative control cells (non-UVB exposed and non test material treated cells) was calculated and used to represent 100% value for cell number. The individual MTT values from the cells undergoing the various treatments was then divided by the mean value for the negative control cells and expressed as a percent, to determine the change in cell viability caused by each treatment. MTT scores for each treatment are expressed as means±the standard deviation of the mean.
Setting [7] is: T1 (24 hour pretreatment, absent during UVB, present 48 hours after) 0.014%.
The mark [8] stands for this setting: T1 (24 hour pretreatment, absent during UVB, present 48 hours after) 0.14%.
[9] abbreviates: T2 (24 hour pretreatment, present during UVB and 48 hours after) 0.014%.
The mark [10] stands for this setting: T2 (24 hour pretreatment, present during UVB and 48 hours after) 0.14%.
The mark [11] stands for this setting: T3 (present only 48 hours after UVB) 0.014%.
Where [12] appears, read: T3 (present only 48 hours after UVB) 0.14%.
Setting [13] is: T4 (no pretreatment, present during UVB and 48 hours after) 0.014%.
Where [14] appears, read: T4 (no pretreatment, present during UVB and 48 hours after) 0.14%.

B1: GC2596-26-E: collagen-like repeat sequence protein polymer, head-[(GAHGPAGPK)2(GAQGPAGPG)24(GAHGPAGPK)2]4-tail; SEQ ID NO:34 (Example 5) (protein)
chain: MDPVVLQRRDWENPGVTQLNRLAAHPPFASDPMGAHGPAGPKGAHGPAGPKGAQGPAGPGGAQGPAGPGGAQGPAGPGGAQGPAGPGGAQGPAGPGGAQGPAGPGGAQGPAGPGGAQGPAGPGGAQGPAGPGGAQGPAGPGGAQGPAGPGGAQGPAGPGGAQGPAGPGGAQGPAGPGGAQGPAGPGGAQGPAGPGGAQGPAGPGGAQGPAGPGGAQGPAGPGGAQGPAGPGGAQGPAGPGGAQGPAGPGGAQGPAGPGGAQGPAGPGGAHGPAGPKGAHGPAGPKGAHGPAGPKGAHGPAGPKGAQGPAGPGGAQGPAGPGGAQGPAGPGGAQGPAGPGGAQGPAGPGGAQGPAGPGGAQGPAGPGGAQGPAGPGGAQGPAGPGGAQGPAGPGGAQGPAGPGGAQGPAGPGGAQGPAGPGGAQGPAGPGGAQGPAGPGGAQGPAGPGGAQGPAGPGGAQGPAGPGGAQGPAGPGGAQGPAGPGGAQGPAGPGGAQGPAGPGGAQGPAGPGGAQGPAGPGGAHGPAGPKGAHGPAGPKGAHGPAGPKGAHGPAGPKGAQGPAGPGGAQGPAGPGGAQGPAGPGGAQGPAGPGGAQGPAGPGGAQGPAGPGGAQGPAGPGGAQGPAGPGGAQGPAGPGGAQGPAGPGGAQGPAGPGGAQGPAGPGGAQGPAGPGGAQGPAGPGGAQGPAGPGGAQGPAGPGGAQGPAGPGGAQGPAGPGGAQGPAGPGGAQGPAGPGGAQGPAGPGGAQGPAGPGGAQGPAGPGGAQGPAGPGGAHGPAGPKGAHGPAGPKGAHGPAGPKGAHGPAGPKGAQGPAGPGGAQGPAGPGGAQGPAGPGGAQGPAGPGGAQGPAGPGGAQGPAGPGGAQGPAGPGGAQGPAGPGGAQGPAGPGGAQGPAGPGGAQGPAGPGGAQGPAGPGGAQGPAGPGGAQGPAGPGGAQGPAGPGGAQGPAGPGGAQGPAGPGGAQGPAGPGGAQGPAGPGGAQGPAGPGGAQGPAGPGGAQGPAGPGGAQGPAGPGGAQGPAGPGGAHGPAGPKGAHGPAGPKMDPGRYQLSAGRYHYQLVWCQK
modifications: silk-elastin repeat sequence protein copolymer
For B1, the “pI of the protein” value in data set [1] came to 11.18. The “concentrations with adverse effects on cell viability” value in data set [2] is at least 0.07%.

B2: GC2596-26-D: SELP47K modified with two units of ALSYP (SEQ ID NO:36) peptides in each SELP47K unit; SEQ ID NO:32 (Example 4) (protein)
chain: MDPVVLQRRDWENPGVTQLNRLAAHPPFASDPMGAGAGSGAGAGSALSYPGVGVPGVGVPGVGVPGVGVPGKGVPGVGVPGVGVPGVGVPALSYPGAGAGSGAGAGSGAGAGSGAGAGSALSYPGVGVPGVGVPGVGVPGVGVPGKGVPGVGVPGVGVPGVGVPALSYPGAGAGSGAGAGSGAGAGSGAGAGSALSYPGVGVPGVGVPGVGVPGVGVPGKGVPGVGVPGVGVPGVGVPALSYPGAGAGSGAGAGSGAGAGSGAGAGSALSYPGVGVPGVGVPGVGVPGVGVPGKGVPGVGVPGVGVPGVGVPALSYPGAGAGSGAGAGSGAGAGSGAGAGSALSYPGVGVPGVGVPGVGVPGVGVPGKGVPGVGVPGVGVPGVGVPALSYPGAGAGSGAGAGSGAGAGSGAGAGSALSYPGVGVPGVGVPGVGVPGVGVPGKGVPGVGVPGVGVPGVGVPALSYPGAGAGSGAGAGSGAGAGSGAGAGSALSYPGVGVPGVGVPGVGVPGVGVPGKGVPGVGVPGVGVPGVGVPALSYPGAGAGSGAGAGSGAGAGSGAGAGSALSYPGVGVPGVGVPGVGVPGVGVPGKGVPGVGVPGVGVPGVGVPALSYPGAGAGSGAGAGSGAGAGSGAGAGSALSYPGVGVPGVGVPGVGVPGVGVPGKGVPGVGVPGVGVPGVGVPALSYPGAGAGSGAGAGSGAGAGSGAGAGSALSYPGVGVPGVGVPGVGVPGVGVPGKGVPGVGVPGVGVPGVGVPALSYPGAGAGSGAGAGSGAGAGSGAGAGSALSYPGVGVPGVGVPGVGVPGVGVPGKGVPGVGVPGVGVPGVGVPALSYPGAGAGSGAGAGSGAGAGSGAGAGSALSYPGVGVPGVGVPGVGVPGVGVPGKGVPGVGVPGVGVPGVGVPALSYPGAGAGSGAGAGSGAGAGSGAGAGSALSYPGVGVPGVGVPGVGVPGVGVPGKGVPGVGVPGVGVPGVGVPALSYPGAGAGSGAGAGSGAGAMDPGRYQDLRSHHHHHH
modifications: SELP 47K-P4
Consider B2, for which the “Percent Viability” value in data set [3] (setting [7]) was 85 ± 7%; in data set [3] (setting [8]), 122 ± 20%; in data set [3] (setting [9]), 78 ± 4%; in data set [3] (setting [10]), 126 ± 25%; in data set [3] (setting [11]) it was 88%; in data set [3] (setting [12]) it was 97 ± 14%. The “Percent Viability” value in data set [3] (T3 (present only 48 hours after UVB) 0.14%, listed as 2596-26-D) was around 100%; in data set [3] (setting [13]), 86 ± 6%; in data set [3] (setting [14]), 121 ± 19%; in data set [5] (0.0014%), 100 ± 3%; in data set [5] (0.007%), 103 ± 2%; in data set [5] (0.014%), 106 ± 5%. Besides, the RFU/Viability in data set [4] (setting [7]) is given as 0.038; in data set [4] (setting [8]), 0.038; in data set [4] (setting [9]) it was 0.035; in data set [4] (setting [10]), 0.032; in data set [4] (setting [11]), 0.053; in data set [4] (setting [12]) it was 0.039. For the same molecule, the RFU/Viability in data set [4] (setting [13]) came out at 0.052; in data set [4] (setting [14]) it was 0.026. Moreover, the “number of viable cells greater than −UVB untreated cells” value in data set [6] was found to be 54%.

(Values after patent publication US20130059772A1, “Use of Repeat Sequence Protein Polymers in Personal Care Compositions” (DANISCO US INC., priority 2003, published 2013).)
